Measurements taken from PMC11847541, “Liver fatty acid binding protein FABP1 transfers substrates to cytochrome P450 4A11 for catalysis” (The Journal of Biological Chemistry, 2025).
Values joined by “and” are separate entries in the source; they are usually repeats but may differ in a detail not shown here. Equal entries are not always repeated. Where two headings read alike, the source gives them in different places. Each block holds one molecule with its values, some of them ahead of it.

Legend:
P450 4A11 [1] = molecular target: T1, P450 4A11 (Homo sapiens, UniProt Q02928); parameters: made in house; host or cells: E. coli; method as in PMID 25203493; details: cited from earlier work
T1 sequence (Q02928 5-519): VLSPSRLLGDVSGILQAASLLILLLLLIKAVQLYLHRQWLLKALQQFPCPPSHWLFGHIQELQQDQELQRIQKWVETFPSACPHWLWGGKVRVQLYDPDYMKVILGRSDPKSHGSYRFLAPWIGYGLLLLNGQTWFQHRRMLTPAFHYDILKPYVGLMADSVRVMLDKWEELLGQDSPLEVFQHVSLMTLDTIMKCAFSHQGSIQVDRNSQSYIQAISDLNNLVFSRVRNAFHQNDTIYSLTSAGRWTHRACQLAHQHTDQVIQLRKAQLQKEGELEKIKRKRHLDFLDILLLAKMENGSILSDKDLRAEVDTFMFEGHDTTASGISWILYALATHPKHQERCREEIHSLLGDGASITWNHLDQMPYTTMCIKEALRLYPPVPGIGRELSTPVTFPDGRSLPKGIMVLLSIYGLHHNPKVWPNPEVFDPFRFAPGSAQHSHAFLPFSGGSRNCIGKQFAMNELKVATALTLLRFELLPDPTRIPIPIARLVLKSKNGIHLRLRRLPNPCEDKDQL

P450 4A11 [2] = molecular target: T1, P450 4A11
P450 101A1 (P450cam) = molecular target: T2, P450 101A1 (P450cam) (Pseudomonas putida, UniProt P00183); experiment: Control fluorescence titration of Alexa-FABP1 with P450 101A1 (P450cam); format: binding, bacterial; details: 100 mM KPhos
T2 construct: made in house
T2 sequence (P00183 whole entry, looked up): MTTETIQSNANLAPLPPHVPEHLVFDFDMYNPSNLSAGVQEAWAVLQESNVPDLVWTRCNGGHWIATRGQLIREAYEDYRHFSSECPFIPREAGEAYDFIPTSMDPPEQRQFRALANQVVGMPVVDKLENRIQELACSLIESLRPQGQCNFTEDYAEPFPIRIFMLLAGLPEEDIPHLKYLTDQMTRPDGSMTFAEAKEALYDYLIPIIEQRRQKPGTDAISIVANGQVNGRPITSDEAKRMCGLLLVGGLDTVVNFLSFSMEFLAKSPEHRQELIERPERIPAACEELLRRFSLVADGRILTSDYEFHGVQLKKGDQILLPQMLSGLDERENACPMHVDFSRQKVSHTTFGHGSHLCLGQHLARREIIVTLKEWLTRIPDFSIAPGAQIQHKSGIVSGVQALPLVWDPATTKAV
Method: (§1) The Alexa-FABP1 construct was tested for P450 binding in a fluorescence titration with P450 4A11.
(§2) Figure 10 Binding of Alexa-FABP1 to P450 4A11.A, equilibrium binding titration of Alexa-FABP1 (25 nM) with P450 4A11 as the titrant (0–50 nM). Titrations were performed in 10 mM (closed circles) or 100 mM (open circles) potassium phosphate buffer (pH 7.4). A control reaction was performed with P450 101A1 (P450cam) in 100 mM KPhos (open squares). The change in fluorescence upon protein–protein binding was normalized to the corresponding change in a buffer control. […] Each data point corresponds to one independent replicate, ≥3 biological replicates were collected to confirm the effect. B, kinetics of binding of Alexa-FABP1 (0.125 μM) and P450 4A11 (0.125 μM). Six traces were averaged, and the data were fit to a single exponential curve (in red). The extracted binding rate was 2.0 ± 0.2 s^−1. FABP1, fatty acid binding protein.

P450 4A11 [3] = molecular target: T3, P450 4A11 (Homo sapiens, UniProt Q02928); experiment: Fluorescence titration of Alexa-FABP1 with P450 4A11; format: binding
T3 construct: made in house; host or cells: E. coli
T3 sequence (Q02928 5-519): T1 sequence (Q02928 5-519)
T3 sequence (P07148 with tags, fused parts or gaps partner): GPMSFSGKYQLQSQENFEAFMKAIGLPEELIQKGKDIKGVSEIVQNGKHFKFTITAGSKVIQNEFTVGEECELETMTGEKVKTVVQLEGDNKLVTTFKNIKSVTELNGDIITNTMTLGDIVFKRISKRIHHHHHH
Method: as §1, §2
Alexa-FABP1 (25 nM [estimated by an asborbance at 280 nm prior to conjugation reaction, accounting for dilution, and assuming no protein loss during the reaction]) was prepared in potassium phosphate buffer (10 mM or 100 mM, pH 7.4) in a 1 ml glass cuvette. A buffer baseline was recorded using an OLIS DM-45 spectrofluorometer (1.24 mm slit width) with excitation wavelength of 470 nm and scanning emission spectra from 500 to 600 nm. P450 4A11 (stored in 100 mM potassium phosphate buffer [pH 7.4] containing 20% glycerol) was titrated (0–50 nM) into the Alexa-FABP1 solution. The same experiment was repeated but with the P450 4A11 buffer used as the titrant to normalize the data for any solvent effect. […] As stimulation was observed by the P450 interaction, the value of one was subtracted from the normalized fluorescence values so that the curve would have an (x, y) intercept of (0, 0). Kd values were calculated fitting plots of the normalized fluorescence at emission maximum versus concentration of P450 4A11 using a quadratic equation in GraphPad Prism software.

P450 4A11 [4] = molecular target: T3, P450 4A11; experiment: Alexa-FABP1 and P450 4A11 association kinetics (stopped-flow fluorescence); format: binding
Method: We then investigated whether the rate of protein–protein association could be estimated using our fluorescent construct. A solution of Alexa-FABP1 (125 nM final concentration) was rapidly mixed with P450 4A11 (125 Nm final concentration), and Alexa-488 fluorescence was monitored over time. The data were fit to a single exponential equation and yielded an association rate of 2.0 ± 0.2 s^−1 (Fig. 10B).
To estimate a rate of interaction for FABP1 and P450, we loaded the protein–protein binding data (Fig. 10B) and fit the data to a simple model, E+F↔EF , as described in the Experimental procedures section. The software fit a kon rate of 2.0 × 10^7 M^−1 s^−1, close to that estimated by using the extracted binding rate ∼2 s^−1 at the concentration (0.125 μM) of either reaction component (i.e., 2 s^−1/0.125 μM = 16 μM^−1 s^−1 = 1.6 × 10^7 M^−1 s^−1).
Mixing solutions (2 ml) of (A) Alexa-FABP1 (0.25 μM [estimated by A280 prior to conjugation reaction, accounting for dilution, and assuming no protein loss during the reaction as described earlier]) and (B) P450 4A11 (0.25 μM) were prepared in potassium phosphate buffer (100 mM, pH 7.4) and loaded into the stopped-flow spectrofluorometer described earlier. The instrument (1.24 mm slit width) was set with an excitation wavelength of 470 nm and Oriel end-on filter for emission >495 nm. The fluorescence maximum of Alexa-FABP1 is 510 nm as described earlier, and stimulation is observed upon protein–protein binding (see “Titrations of Alexa-FABP1 with P450 4A11”). At least six replicate measurements were recorded, the spectra were processed such that the fluorescence gain (from DAUDA binding) began at an (x, y) intercept of (0, 0), and the spectra were averaged. A smoothing factor of 0.4 was applied to the data (in Microsoft Excel), and the resulting curve was fit to a single exponential plot in GraphPad Prism, and the rate of association was extracted. The data were loaded into KinTek Explorer and fit to a minimal kinetic model of protein–protein association (i.e., E+F↔EF ), and a second-order rate constant for the association was extracted.

Cytochrome P450 4A11 [5] = molecular target: T4, Cytochrome P450 4A11 (human, UniProt Q02928 5-519); experiment: stopped-flow fluorescence kinetics; Alexa-FABP1 and P450 4A11 rapidly mixed, 0.125 μM each final; 100 mM potassium phosphate, pH 7.4; excitation 470 nm, emission >495 nm; single exponential fit and KinTek Explorer fit to E+F↔EF; details: both partners purified
T4 construct: cytochrome P450 4A11, human fatty acid ω-hydroxylase
T4 sequence (looked up): T1 sequence (Q02928 5-519)

Cytochrome P450 4A11 [6] = molecular target: T4, Cytochrome P450 4A11; experiment: other fluorescence titration; Alexa-FABP1 (25 nM) in the cuvette, P450 4A11 titrated in (0–50 nM); 10 mM potassium phosphate, pH 7.4; excitation 470 nm, emission maximum 510 nm; quadratic fit; no phospholipid; details: both partners purified
Cytochrome P450 4A11 [7] = molecular target: T4, Cytochrome P450 4A11; experiment: other fluorescence titration; Alexa-FABP1 (25 nM) in the cuvette, P450 titrated in (P450 4A11 0–50 nM); 100 mM potassium phosphate, pH 7.4; excitation 470 nm, emission maximum 510 nm; normalized to a buffer titration; no phospholipid; details: both partners purified

Molecule: O=C(O)CCCCCCCCCCCO [12-OH laurate]
- P450 heme Soret spectral shift induced (P450 4A11 [1]): typical type I spectral shift

Molecule: Alexa-FABP1: FABP1 labeled at Cys-71 with Alexa-488 C5 maleimide
- change of Alexa-FABP1 fluorescence (P450 101A1 (P450cam)): mild attenuation of fluorescence
- decrease of Kd on reducing ionic strength (P450 4A11 [3]; 100 mM to 10 mM potassium phosphate): ~38 fold
- Kd (P450 4A11 [3]; dependent on ionic strength): 3 to 124 nM
- rate of protein–protein association (P450 4A11 [4]; Alexa-FABP1 0.125 μM, P450 4A11 0.125 μM, single exponential): ~2 s⁻¹ and 2.0 ± 0.2 s⁻¹
- kon of FABP1–P450 4A11 association (k6) (P450 4A11 [4]; KinTek fit to E+F↔EF): ~2e+07 M⁻¹ s⁻¹

Second part, the molecule after the results:

- P450 heme Soret spectral shift induced (P450 4A11 [2]): type II
Molecule: CC(=O)N1CCN(c2ccc(OCC3COC(Cn4ccnc4)(c4ccc(Cl)cc4Cl)O3)cc2)CC1 (centres unmarked) [ketoconazole]

- koff (Cytochrome P450 4A11 [5]): 2.4 s⁻¹
- kon (Cytochrome P450 4A11 [5]): 2e+07 M⁻¹ s⁻¹
- Kd (Cytochrome P450 4A11 [6]): 3.3 ± 0.9 nM
- Kd (Cytochrome P450 4A11 [7]): 120 ± 80 nM
B1: Alexa Fluor 488–labeled FABP1 (natural protein, human, UniProt P07148 1-127, looked up)
chain: MSFSGKYQLQSQENFEAFMKAIGLPEELIQKGKDIKGVSEIVQNGKHFKFTITAGSKVIQNEFTVGEECELETMTGEKVKTVVQLEGDNKLVTTFKNIKSVTELNGDIITNTMTLGDIVFKRISKRI
modifications: Alexa Fluor 488 C5 maleimide on Cys-71 of the construct (Cys-69 of FABP1); low background labeling of free amines
notes: final construct is a 15,185.4 Da protein; Cys-69 of FABP1 is Cys-71 in the construct. numbers count on: Cys-71 on the construct, Cys-69 on FABP1; The unlabeled, delipidated form of the same protein was used in the palmitate transfer and catalytic assays; also called Alexa-FABP1; Alexa-488-labeled FABP1; not shown: GST, N-terminal, cleaved; His6, C-terminal, kept
